{"source": "patent US20140255383A1", "about": "(SYNAGEVA BIOPHARMA, published 2014)", "binders": {"B1": {"name": "recombinant human N-acetyl-alpha-D-glucosaminidase (rhNaGlu) produced from a transgenic avian (Gallus) (enzyme)", "chain": "DEAREAAAVRALVARLLGPGPAADFSVSVERALAAKPGLDTYSLGGGGAARVRVRGSTGVAAAAGLHRYLRDFCGCHVAWSGSQLRLPRPLPAVPGELTEATPNRYRYYQNVCTQSYSFVWWDWARWEREIDWMALNGINLALAWSGQEAIWQRVYLALGLTQAEINEFFTGPAFLAWGRMGNLHTWDGPLPPSWHIKQLYLQHRVLDQMRSFGMTPVLPAFAGHVPEAVTRVFPQVNVTKMGSWGHFNCSYSCSFLLAPEDPIFPIIGSLFLRELIKEFGTDHIYGADTFNEMQPPSSEPSYLAAATTAVYEAMTAVDTEAVWLLQGWLFQHQPQFWGPAQIRAVLGAVPRGRLLVLDLFAESQPVYTRTASFQGQPFIWCMLHNFGGNHGLFGALEAVNGGPEAARLFPNSTMVGTGMAPEGISQNEVVYSLMAELGWRKDPVPDLAAWVTSFAARRYGVSHPDAGAAWRLLLRSVYNCSGEACRGHNRSPLVRRPSLQMNTSIWYNRSDVFEAWRLLLTSAPSLATSPAFRYDLLDLTRQAVQELVSLYYEEARSAYLSKELASLLRAGGVLAYELLPALDEVLASDSRFLLGSWLEQARAAAVSEAEADFYEQNSRYQLTLWGPEGNILDYANKQLAGLVANYYTPRWRLFLEALVDSVAQGIPFQQHQFDKNVFQLEQAFVLSKQRYPSQPRGDTVDLAKKIFLKYYPRWVAGSW", "modifications": "glycosylated; glycans carry mannose-6-phosphate (3.2 moles of M6P per mole of protein), sites not stated"}}, "target": "Mannose 6-phosphate receptor (M6P receptor) on human MPS IIIB fibroblasts (human)", "assay": "cell-based or functional assay"}
{"binder": "B1", "values": [{"measurement": "cellular uptake: NaGlu activity in MPS IIIB fibroblasts treated with 0.3 µg/mL rhNaGlu for 24 hours, against wild-type fibroblasts", "value": "~50 % of wild-type activity"}, {"measurement": "cellular uptake: NaGlu activity in MPS IIIB fibroblasts treated with 1 µg/mL rhNaGlu for 24 hours, against wild-type fibroblasts", "value": "~4 fold of wild-type activity"}, {"measurement": "cellular uptake: NaGlu activity in MPS IIIB fibroblasts treated with 30 µg/mL rhNaGlu for 24 hours, against wild-type fibroblasts", "value": "≥ 40 fold of wild-type activity"}]}
